From patent US11932672B2, “Fermentation process” (Syngulon S.A., priority 2017, dated 2024)
Entries after “also recorded” stand apart in the source; their conditions may differ.

Tests used:
Candida species = settings: cited from earlier work
[1] = tested on: fungal microbial organism; settings: cited from earlier work
bacteriocin B17 = assay: Resistance to B17 conferred by plasmid-expressed immunity gene (selection on plates containing B17); format: cell-based, BL21(DE3)
Excerpt: We have separated genes from B17 immunity structures and cloned these into vectors behind an inducible promoter (Ptac).
We have separated the genes from B17 immunity structures and cloned them into vectors behind an inducible promoter (Ptac).
We inserted the B17 McbG immunity structure gene and cloned the latter into vectors behind the weak constitutive promoter (P24). A second construct was generated with a P24 LacO hybrid promoter which is an inducible promoter repressed in the presence of lad and active in presence of IPTG.
The BL21(DE3) strain was transformed with vector pMcbG1.0 or pMcbG1.1 (see FIG. 3 or 4). After transformation, transformants were selected on plates containing B17. Isolated colonies were re-grown and the plasmid they contained was analyzed by gel electrophoresis after treatment with relevant restriction enzymes.

bacteriocin C7 = assay: Resistance to C7 conferred by plasmid-expressed immunity gene (vector selection marker); format: cell-based; settings: gene expressed from plasmid (pBACT2.0, pBACT5.0)
Excerpt: The vector used is pBACT2.0 (FIG. 6, SEQ ID NO: 713).
(§1) The vector used is pBACT5.0 (FIG. 5, SEQ ID NO: 712).

ColV = assay: Resistance to ColV conferred by plasmid-expressed immunity gene (vector selection marker); format: cell-based; settings: gene expressed from plasmid pBACT5.0
Excerpt: as §1

[2] = tested on: pathogenic Gram-positive and Gram-negative bacteria; settings: cited from earlier work

Enterococcus faecalis peptide: Enterococcus faecalis peptide, SEQ ID NO: 1 (WLPPAGLLGRCGRWFRPWLLWLQSGAQYKWLGNLFGLGPK; listed as Enterococcus faecalis)
neutralizing activity against Candida species (Candida species): neutralizing activity

botrycidin AJ1316
antifungal activities [1]: antifungal activities

B1: McbG: immunity to the bacteriocin B17, nucleic acid SEQ ID NO: 699 (protein, listed as Escherichia coli)
chain: MDIIEKRITKRHLSESELSGVNYYNCIFERIQLDNFNFRDCEFEKCRFVNCSIKNLKLNFFKLIDCEFKDCLLQGVNAADIMFPCTFSLVNCDLRFVDFISLRLQKSIFLSCRFRDCLFEETDLRKSDFTGSEFNNTEFRHSDLSHCDFSMTEGLDINPEINRILSIKIPQEAGLKILKRMGVVVGG
modifications: gene (1)..(564) McbG gene
resistance to B17 (bacteriocin B17; gene expressed from plasmid, Ptac not induced, weak P24 promoter or pBACT2.0): sufficient to give the phenotype of resistance

B2: McbE/F: pumps of the B17 immunity structure, construct pSyn2-McbE/F SEQ ID NO: 703 (protein, UniProt P05528 1-241; P05529 1-247, looked up)
Protein McbE: MVTLKMAIIFLMEQIRTPFSLIWTIMSPTVLFFFLHFNEIELHYGDTAWLGKQISWFVGYISFSVVLFNYCLYLVGRRESGFIATFVHNMDGRLLFIRSQLIASLIMSILYVFFFILVVLTGFQASPDYQIVMIILKSIYINAFMMVSLTFMASFRVTFQTASTIYSVLITVCMVSGIVSLKYNEGIVYWINQVNPIAIYSTILQSDQELSLMTIFFYSIMLIISIISALTFKTEPVWSSQ
Protein McbF: MTIPLLEINSLSFSYKVNLPPVFNNLSLKIEQGELIGLLGENPAGKTTLFNLIRGGVSNYEGTLKRNFSGGELVSLPQVINLSGTLRNEEVLDLICCFNKLTKKQAWTDVNHKWNDNFFIRYDKIRRKRTYTVSYGEKRWLIISLMVTLCKNARLFLLDEPTVGIDIQYRMMLWELINKITADGKTVFFSTHIFDELTRDKIPFYMLSKNSINRYSDMSDFIQSNNETTQKRHLLKKLWEQETDTWI
toxicity of expression to the strain (bacteriocin B17; pSyn2-McbE/F under Ptac): toxic

B3: C-terminal part of MccE: C-terminal portion of MccE, SEQ ID NO: 701 (amino acid SEQ ID NO: 706) (protein)
chain: FRKYDVSLTPSGIKVNDEITLLYPALKYAEELYLLINQNKINFIKSMAWPAFVNNISDSVSFIEQSMIDNQNEKALILFIKYKTKIAGVVSFNIIDHANKTAYIGYWLGANFQGKGIVTNAINKLIQEYGDSGVIKRFVIKCIVDNKKSNATALRCGFTLEGVLQKAEILNGVSYDQNIYSKVIG
modifications: C-terminal part of MccE protein
resistance to bacteriocin C7 (bacteriocin C7): sufficient to confer resistance; also recorded: give resistance | resistance to bacteriocin C7 (bacteriocin C7; listed as truncated MccE): give resistance

B4: MccE: immunity to the bacteriocin C7, nucleic acid SEQ ID NO: 700 (protein, listed as Escherichia coli)
chain: MAQKITPSKIVKHARELIIKGIESGDNSFVIFDVDGALERLEHYRCQLKSFFPNSSIAYSYKSNNLAQWCQIISGKGLYAEVCSVDEMNLAKRDGFNRIVFDGPLKKTSELLKAIEIGALIEVDNIDECKRLNELCKLHKLTCRIHLRLSHYYDDNLSRFGLSESEAINLLEMLISKSEYLILDGFHLHVGSNLPNAEKICKAVIQYHELILRYMPDDGTLNLGSGIPADSFSASSDNPTPCPEVFFSSIYDTIKNCFGTVCDKWNYIFEPGRHLVEDFGYFIGKVISTKNRYGVKVAQTNIGINWIPSIRNWDHSFTLFHNHNHISDDKSDEYIIAGFNCFECDCLFPSVILPSNLSDYLFSVRGCGAYDMQTGNQWTRNLYAVYTITNDVVNISRIHRRELDFRKYDVSLTPSGIKVNDEITLLYPALKYAEELYLLINQNKINFIKSMAWPAFVNNISDSVSFIEQSMIDNQNEKALILFIKYKTKIAGVVSFNIIDHANKTAYIGYWLGANFQGKGIVTNAINKLIQEYGDSGVIKRFVIKCIVDNKKSNATALRCGFTLEGVLQKAEILNGVSYDQNIYSKVIG
modifications: gene (1)..(1770) MccE gene
resistance to bacteriocin C7 (bacteriocin C7): give resistance

B5: Cvi: immunity gene giving resistance to ColV, SEQ ID NO: 709 (protein, listed as Escherichia coli)
chain: MDRKRTKLELLFAFIINATAIYIALAIYDCVFRGKDFLSMHTFCFSALMSAICYFVGDNYYSISDKIKRRSYENSDSK
modifications: gene (1)..(237) Cvi
resistance to ColV (ColV): give resistance

B6: Ent35-MccV: hybrid bacteriocin: N-terminal glycine, Enterocin CRL35, three-glycine linker, C-terminal Microcin V, SEQ ID NO: 3 (protein)
chain: GKYYGNGVSCNKKGCSVDWGRAIGIIGNNSAANLATGGAAGWKSGGGASGRDIAMAIGTLSGQFVAGGIGAAAGGVAGGAIYDYASTHKPNPAMSPSGLGGTIKQKPEGIPSEAWNYAAGRLCNWSPNNLSDVCL
modifications: Hybrid bacteriocin Ent35-MccV
antimicrobial activity [2]: displays antimicrobial activity
